84 variants from the RNAGym collection of RNA variant scans (doi:10.1093/molbev/msab373) can be followed below.

The chains are these.
B1: Azoarcus group I ribozyme (parent)
chain: GUGCCUUGCGCCGGGAAACCACGCAAGGGAUGGUGUCAAAUUCGGCGAAACCUAAGCGCCCGCCCGGGCGUAUGGCAACGCCGAGCCAAGCUUCGGCGCCUGCGCCGAUGAAGGUGUAGAGACUAGACGGCACCCACCUAAGGCAAACGCUAUGGUGAAGGCAUAGUCCAGGGAGUGGCGAAAGUCACACAAACCGG

In the data set the parent is B1. Put plainly: reverse-splicing fitness (ratio to wild type); higher = more active; in vitro selection; Mg2+ level not given. The essentials: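 An in vitro group I ribozyme library with randomized positions was T7-transcribed and gel-purified. In triplicate, 10 pmol RNA in EPPS pH 7.5 was reacted with 50 pmoles of a 30-nt RNA substrate for 1 h at 37 °C across several added MgCl2 levels (1–48 mM), then stopped with EDTA. Products were reverse transcribed from a substrate-complementary primer, PCR-amplified and sequenced (HiSeq 4000). Fitness is a variant's read proportion after selection over that before, normalised to wild type.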
Consider C82U A120U C150U C169G U176G, for which the reverse-splicing fitness is 0.00155. The result for C82A A120U A145C C169U U176G reads 0.00109; that for C82U A111U A120G A145G C150G U176A, 0.0062. As to C82A A120C C169G U176A, the reverse-splicing fitness was 0.0193. Regarding A111C A120U A145C C150A U176G, the reverse-splicing fitness was determined as 0.00735. Take C82G A111C A120G A145G C150U U176C: the reverse-splicing fitness stood at 0.0183. Then A111G A145U C169A U176C, with 0.0203.

Take C82A A120C A145U C150G U176A: the reverse-splicing fitness turned out to be 0.00792. Then C82U A120G A145G U176C, with 0.019; and C82A A111G A120U A145G C150U C169A, with 0.00667. For C82U A111U C150A C169G U176G, the reverse-splicing fitness is 0.00717. The result for C82A A111C A120C C150U C169A U176C reads 0.0126; that for A111U C150A C169G U176G, 0.00571. Then C82A A111G A120U A145G U176A, with 0.00959; and A111U C169A U176C, with 0.0214. Then A111U A120C C150G C169U, with 0.02; and C82G A111G A120C A145C C169A U176G, with 0.00459.

Regarding C82G A120C A145C C150U U176C, the reverse-splicing fitness stood at 0.0273.

With A120G A145U C150A, the reverse-splicing fitness came to 0.0603. The result for A111U A120G A145U reads 0.172. The result for C82U A111C A120C A145C C150A reads 0.0072; that for C82U A111G A145C C150G C169G U176A, 0.00777.

Take C82U A111C A120C A145U C150U C169G U176C: the reverse-splicing fitness stood at 0.0142. On to A111U A120G A145C C150A C169U U176A, for which the reverse-splicing fitness was 0.0208. C82U A111U C169A: the reverse-splicing fitness is 0.00848. The result for C82U A111U C169G reads 0.00886. For the variant A120C C150G C169G U176C, the reverse-splicing fitness stood at 0.00463. For the variant C82U A120G A145U C150G C169G, the reverse-splicing fitness came to 0.00815.

Regarding A111U A120G A145G C150U C169U, the reverse-splicing fitness turned out to be 0.133. The result for A111G A120C C150G C169G U176A reads 0.00631; that for C82U A111G A145G C150A C169A U176G, 0.00546; that for C82A A111C A120G A145G C150U U176A, 0.00883. Then A120C C169G, with 0.029; and C82G A111G A145U C150A C169A U176G, with 0.00645; and A120U A145G C169G U176G, with 0.00281. Turning to C82A A111C A120U A145C C150G C169A U176G, the reverse-splicing fitness came out at 0.00275. The result for C82A A111C A120G A145U C150G C169A reads 0.00851; that for A111C A120C C169G, 0.00921; that for C82G A120G A145C C169G, 0.0468.

With C82G A120U A145C C150G U176G, the reverse-splicing fitness turned out to be 0.00292. Regarding C82U A111G A120C A145G C150G C169G, the reverse-splicing fitness is 0.00678. Then C82U A111G A120C A145G C150G C169A, with 0.00845; and C82U A111U A120G U176G, with 0.00474; and A111C A120U U176G, with 0.0937.

As to C82A A111C A145C C150G C169A U176A, the reverse-splicing fitness came to 0.00837.

In the case of A111G C150U C169U U176G, the reverse-splicing fitness is 0.00703. The result for A111U A120U A145C C150A reads 0.0261; that for C82G A111U A145C C150A C169A U176G, 0.0075; that for A111C A120C C150A U176G, 0.0118. In the case of C82A A120C A145G C150U U176A, the reverse-splicing fitness was 0.0309. For the variant A111C A120U A145U C150U C169G U176G, the reverse-splicing fitness was found to be 0.00261. In the case of A111C A145C C169G, the reverse-splicing fitness worked out at 0.0652. The result for C82U A111C A120G A145C C150G C169A U176C reads 0.00509. Then C82U A111G A145G C150G C169G, with 0.007.

In the case of C82A A111G A120G A145G U176G, the reverse-splicing fitness is 0.00638. On to C82U A111C A120G A145U C169A U176A, for which the reverse-splicing fitness stood at 0.00825. The result for A120G A145U C169U U176A reads 0.174. Then C82G A111U A120C A145C C150A C169U U176C, with 0.0105. Then C82G A111U A120C A145C C150A C169U U176G, with 0.00605. As for C82A A111G A120G A145C C150G C169A, the reverse-splicing fitness was found to be 0.00928.

On to A111U A120U C150U C169U U176G, for which the reverse-splicing fitness worked out at 0.00287. On to C82A A111C A145G C150U C169A U176A, for which the reverse-splicing fitness worked out at 0.0141. Take C82A A111C A145G C150U C169A U176G: the reverse-splicing fitness was 0.00833. Then A111U C169U U176G, with 0.00752; and C82A A111U A120U U176A, with 0.00842. With C82G A111U A145G C150U U176C, the reverse-splicing fitness was found to be 0.196.

In the case of C82U A120G A145U C150U C169A U176A, the reverse-splicing fitness is 0.0106. Consider C82G A120C A145C C150G C169A U176G, for which the reverse-splicing fitness was found to be 0.00496. On to C82U A111C A120C A145C C169U, for which the reverse-splicing fitness was found to be 0.0105.

On to C82G C150A U176A, for which the reverse-splicing fitness stood at 0.0422.

In the case of A111G A120U A145C C150A C169A U176C, the reverse-splicing fitness is 0.00206.

With C82U A111U A145C C150G C169A U176A, the reverse-splicing fitness turned out to be 0.00853. On to A111U A120C A145U C150A C169A U176C, for which the reverse-splicing fitness came out at 0.00867. The result for C82U A111U A120C A145U U176G reads 0.00445; that for C82A A111U A120G C150U C169G U176A, 0.0175. The result for C82G A111U C150A C169G U176G reads 0.0075; that for C82A A111G A145G C150U U176G, 0.0317; that for C82A A111G A120C A145G C150A C169A U176C, 0.0211.

For A111G A120G A145C U176A, the reverse-splicing fitness is 0.0723. Take C82A A111C A120U A145G C169G U176C: the reverse-splicing fitness is 0.00437.

For C82U A111U A120G A145U C150U U176A, the reverse-splicing fitness was 0.00953. Consider A111U A120G A145G C150G U176C, for which the reverse-splicing fitness is 0.0156.

Turning to C82G A120C A145G C150A C169A U176G, the reverse-splicing fitness is 0.00671. As to C82G A120U A145G C150U C169G, the reverse-splicing fitness turned out to be 0.00765.
